Assay [1] addresses T1, pDisplay-ECD2 on HEK293 cells (Homo sapiens (Human), UniProt Q99572 47-306).
T1 construct: also called ECD2 as pDisplay; not shown: N-terminal HA tag of pDisplay (told for ECD1); c-Myc tag and PDGFR transmembrane anchorage of pDisplay (told for ECD1)
T1 sequence: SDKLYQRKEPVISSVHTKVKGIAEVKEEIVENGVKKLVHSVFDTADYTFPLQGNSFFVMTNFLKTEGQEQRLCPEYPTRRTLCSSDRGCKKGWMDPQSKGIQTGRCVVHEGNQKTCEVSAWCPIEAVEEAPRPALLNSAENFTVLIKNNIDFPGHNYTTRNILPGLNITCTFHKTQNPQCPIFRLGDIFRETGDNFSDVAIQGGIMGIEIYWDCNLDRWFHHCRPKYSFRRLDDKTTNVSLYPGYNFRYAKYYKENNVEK
In words: flow cytometry, live HEK293E cells expressing pDisplay-ECD2 ('HEK293E-pDisplay ED'), dAb at 5 uM, detection with anti-human IgG Fab.

Assay [2] concerns the target T2, E200 peptide.
T2 construct: Made by solid phase synthesis at Chiron Mimotopes; Which form (free, conjugated, biotinylated) was on the chip is told only for some experiments; also called peptide antigen E200; E200-biotin peptide
In words: Biacore using E200, dAb-Fc. A general note: Surface plasmon resonance follows binding to a sensor surface in real time, without labels.

The target in assay [3] is T2, E200 peptide. In words: Biacore using E200 (10RU), dAb-Fc at 100 pM to 1 nM.
In assay [4] the target is T3, ECD2, P2X7 receptor (47-306), soluble (Homo sapiens (Human), UniProt Q99572 47-306).
T3 construct: also called soluble ECD2; ECD2 domain
T3 sequence: T1 sequence
In words: Biacore against ECD2 in either solution form or as a ECD-Fc construct; Fc format; ECD2 in solution or as ECD-Fc, form not told.

Assay [5] concerns the target T3, ECD2, P2X7 receptor (47-306), soluble. Put plainly: Biacore against ECD2 in either solution form or as a ECD-Fc construct; Fc construct.
Assay [6] has the same target. Put plainly: Biacore, dAb domain without Fc; dAb domain, no Fc format.
The target is the same in assay [7]. In words: Biacore, labelled dAb domain at 10 and 5 nM; target taken as ECD2 from the paragraph before; Alexa488-labelled dAb domain, different parent.
Assay [8] has the same target. In words: Biacore against ECD2 in either solution form or as a ECD-Fc construct; Fc format taken from context.
The target is the same in assay [9]. Put plainly: single domain format; method not given.
Assay [10] concerns the target T2, E200 peptide. In words: Biacore, E200 peptide.
Assay [11] concerns the target T3, ECD2, P2X7 receptor (47-306), soluble. In words: Biacore, labelled dAb domain at 5 and 2.5 nM; target taken as ECD2 from the sentence before; Alexa488-labelled dAb domain.

Residue numbers refer to the chain shown, from its start.

This note sets out measurements from patent publication US20250084161A1 (BIOSCEPTRE AUST, published 2025).

B1: 2.4 (other)
VH single domain (dAb): EVQLLESGGGLVQPGGSLRLTCAASGFSFRNHDMGWVRQAPGKGLEWVSAISGSGGSTYYADSVKGRFTISRDNSKNTLYLQMNSLRAEDTAVYYCAEPKPMDTEFDYRSPGTLVTVSS
notes: Read as PEP2-2-4, in line with '2' = PEP2-2 and '47.1' = PEP2-47-1; it is not PEP2-4; also called PEP2-2-4; PEP2-2-4 dAb
As to B1, the binding result in assay [1] is “binds”.

B2: PEP2-247-1 Fc (Fc fusion)
chain: B1 VH single domain (dAb) with T21S, S28T, S57G, K100S, P101H, M102F, T104R, E105P, P111Q
notes: Standard format dAb-Fc with human type IgG1 Fc subtype; also called 2-247-1 (PEP-Fc); 2-2/2-47-1 CDR crossover; not shown: human IgG1 Fc
Usually Kd stands for the constant that tells how readily two partners part at equilibrium. In turn, B2 yielded an equilibrium dissociation constant (Kd) in the assay with E200 peptide [2] of 190 pM.

B3: PEP2-2-2 Fc (Fc fusion)
chain: B1 VH single domain (dAb) with T21S, S28T, P111Q
notes: Standard format dAb-Fc with human type IgG1 Fc subtype; also called 2-2-2 (PEP-Fc); not shown: human IgG1 Fc
As for B3, in the assay with E200 peptide [2], the Kd is 100 pM.

B4: PEP2-247-2 Fc (Fc fusion)
chain: B1 VH single domain (dAb) with T21S, S28T, D62N, K100S, P101H, M102F, T104R, E105P, P111Q
notes: Standard format dAb-Fc with human type IgG1 Fc subtype; also called 2-247-2 (PEP-Fc); 2-2-1/2-47-1 CDR crossover; not shown: human IgG1 Fc
B4 came in with a dissociation constant (Kd) with E200 peptide [2] of 450 pM.

B5: PEP2-2-1-1 Fc (Fc fusion)
chain: B1 VH single domain (dAb) with T21S, S28T
notes: Standard format dAb-Fc with human type IgG1 Fc subtype; also called 2-2-1-1 (PEP-Fc); not shown: human IgG1 Fc
For B5, the dissociation constant (Kd) in the assay with E200 peptide [2] is 90 pM.

B6: PEP2-2-3 Fc (Fc fusion)
chain: B1 VH single domain (dAb) with T21S, S28T, R109W
notes: Standard format dAb-Fc with human type IgG1 Fc subtype; also called 2-2-3 (PEP-Fc); not shown: human IgG1 Fc
Turning to B6, the dissociation constant (Kd) worked out at 130 pM in the assay with E200 peptide [3] and 1500 pM in assay [4].

B7: PEP2-2-1 Fc (Fc fusion)
chain: B1 VH single domain (dAb) with T21S, S28T, D62N
notes: Standard format dAb-Fc with human type IgG1 Fc subtype; also called PEP2-2-1 dAb-FC; not shown: human IgG1 Fc
On to B7, for which binding in assay [5] was characterised by a dissociation constant (Kd) of 560 pM.

B8: PEP2-2-12 dAb domain (other)
VH: B1 VH single domain (dAb) with T21S, S28T, D62N, R109P
notes: Human VH dAb domain, no Fc format
The molecule B8 displayed a dissociation constant Kd in assay [6] of 945 pM.

B9: PEP2-472-12Alexa488 domain (other)
VH: B1 VH single domain (dAb) with T21S, F27Y, S28T, R30P, N31M, H32K, S57G
modifications: Alexa488 label attached (site not stated)
notes: Human VH dAb domain, labelled
Turning to B9, the equilibrium dissociation constant (Kd) in assay [7] came out at 156 pM.

B10: 47.1 (other)
VH single domain (dAb): EVQLLESGGGLVQPGGSLRLSCAASGYTFPMKDMGWVRQAPGKGLEWVSAISGSGGGTYYADSVKGRFTISRDNSKNTLYLQMNSLRAEDTAVYYCAEPSHFDRPFDYRSQGTLVTVSS
notes: also called PEP2-47-1; PEP2-47-1 dAb
Consider B10, for which, in assay [1], the binding result is “binds”.

B11: PEP2-472-1 Fc (Fc fusion)
chain: B10 VH single domain (dAb) with S100K, H101P, F102M, R104T, P105E
notes: Standard format dAb-Fc with human type IgG1 Fc subtype; also called 2-47-1/2-2-2 CDR crossover; not shown: human IgG1 Fc
As for B11, the Kd in the assay with E200 peptide [2] is 90 pM; in assay [8], 584 pM.

B12: PEP2-47 dAb (other)
VH: B10 VH single domain (dAb) with Y27F, G57S, R109W, S110G
notes: Human VH dAb, unformatted
B12: the binding result in [9] is “binds”.

B13: PEP2-2-3 dAb (other)
VH: B1 VH single domain (dAb) with T21S, S28T, R109W
notes: Human VH dAb, unformatted; also called unformatted dAb PEP2-2-3
The molecule B13 displayed a Kd in the assay with E200 peptide [10] of 7000 pM.

B14: PEP2-2-12Alexa488 domain (other)
VH: B1 VH single domain (dAb) with T21S, S28T, D62N, R109P
modifications: Alexa488 label attached (site not stated)
notes: Human VH dAb domain, labelled; also called PEP2-2-12 with Alexa488 label
With B14, the affinity in [11], expressed as Kd, was 174 pM.

B15: 2.5 (other)
VH single domain (dAb): B1 VH single domain (dAb) with T21S, S28T, N74D
notes: Read as PEP2-2-5; it is not PEP2-5; also called PEP2-2-5; PEP2-2-5 dAb
Regarding B15, in assay [1], the binding result is “binds”.

B16: 42.2 (other)
VH single domain (dAb): EVQMLESGGGLVQPGESLRLSCAASGFTFDNVEMSWVRQAPGKGLEWVSSIGSKGEYTYYADSVKGRFTISRDNSKNTLYLQMNSPRAEDTAVYYCAQTVNVPEPAFAYWGQGTLVTVSS
notes: also called PEP2-42-2; PEP2-42-2 dAb
For B16, the binding result in assay [1] was “binds”.

B17: PEP2-42 Fc (Fc fusion)
chain: B16 VH single domain (dAb) with M4L, E16G, Y57D, P86L
notes: Standard format dAb-Fc with human type IgG1 Fc subtype; also called 2-42 (PEP-Fc); not shown: human IgG1 Fc
Regarding B17, binding with E200 peptide [2] was characterised by a dissociation constant (Kd) of 5500 pM.

B18: PEP2-47 Fc (Fc fusion)
chain: B10 VH single domain (dAb) with Y27F, G57S, R109W, S110G
notes: Standard format dAb-Fc with human type IgG1 Fc subtype; also called 2-47 (PEP-Fc); not shown: human IgG1 Fc
The molecule B18 registered a dissociation constant Kd in the assay with E200 peptide [2] of 7500 pM.

B19: PEP2-47-1 Fc (Fc fusion)
chain: B10 VH single domain (dAb)
notes: Standard format dAb-Fc with human type IgG1 Fc subtype; also called 2-47-1 (PEP-Fc); not shown: human IgG1 Fc
Take B19: the dissociation constant (Kd) with E200 peptide [2] is 110 pM.
